Data from publication PMC6051998.

Experiments:
[1] = target: Drp1 short GG (minimal GTPase-GED construct of Drp1, short splice variant) (human) (UniProt O00429); assay: SEC-MALS; GG constructs after 30 min at room temperature with the transition-state analog GDP.AlFx (2 mM GDP, 4 mM MgCl2, 2 mM AlCl3, 20 mM NaF); Drp1 GG 25 μM, Dyn1 GG and GG-PRD 15 μM; Superdex 75 10/300 GL
[2] = target: MffΔTM (residues 1–217), dimeric variant; assay: SEC-MALS; MffΔTM (100 μM) and GST (100 μM) on Superose 6 10/300 GL
[3] = target: glutathione S-transferase (GST); assay: as above

Sequence of glutathione S-transferase (GST) (enzyme) (P08515 2-218): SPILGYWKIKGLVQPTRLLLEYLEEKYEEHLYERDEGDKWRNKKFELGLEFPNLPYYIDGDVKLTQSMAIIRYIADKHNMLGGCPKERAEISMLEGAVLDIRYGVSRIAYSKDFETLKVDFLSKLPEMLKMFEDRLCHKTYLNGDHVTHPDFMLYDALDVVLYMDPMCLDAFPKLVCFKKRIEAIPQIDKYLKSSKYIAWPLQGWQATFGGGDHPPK

A stoichiometry N [1] of 2 was found for “Drp1 short GG (minimal GTPase-GED construct of Drp1, short splice variant) (from UniProt O00429-4 1-327; O00429-4 1-327) (domain or fragment)” in this work.
A stoichiometry N [2] of 2 was found for “MffΔTM (residues 1–217), dimeric variant (domain or fragment)” in this work.
A stoichiometry N [3] of 2 was found for “glutathione S-transferase (GST) (enzyme)” in this work.
